# Target: human USP11 N-terminal DUSP-UBL (DU) domains, residues 24-244 (human)
# Assay: SEC; gel filtration of hUSP11DU at concentrations associated with crystallization
substance,measurement,value
"human USP11 N-terminal DUSP-UBL (DU) domains, residues 24-244 (domain or fragment)",fraction of dimer,5%
